Results from patent US7087420B1, “Microbial β-glucuronidase genes, gene products and uses thereof” (Cambia, priority 1997, dated 2006).

Substrate: O=C(O)[C@H]1O[C@@H](Oc2ccc([N+](=O)[O-])cc2)[C@H](O)[C@@H](O)[C@@H]1O
Experiment: Kinetics of pNPG hydrolysis by E. coli GUS (spectrophotometric p-nitrophenol release)
Type: biochemical, Escherichia coli
Details: other: E. coli GUS, substrate pNPG, 37° C., pH 7.0
Protocol: One such substrate is p-nitrophenyl β-D-glucuronide (pNPG), which when cleaved by GUS releases the chromophore p-nitrophenol. At a pH greater than its pKa (approximately 7.15), the ionized chromophore absorbs light at 400–420 nm, therefore appears in the yellow range of visible light. Briefly, reactions are performed in 50 mM Na3PO4 pH 7.0, 10 mM 2-ME, 1 mM EDTA, 1 mM pNPG, and 0.1% Triton® X-100 at 37° C. The reactions are terminated by the addition of 0.4 ml of 2-amino-2-methylpropanediol, and absorbance measured at 415 nm against a substrate blank. Under these conditions, the molar extinction coefficient of p-nitrophenol is assumed to be 14,000: One unit is defined as the amount of enzyme that produces 1 nmole of product/min at 37° C.
Turnover number is calculated as nmoles of pNPG converted to p-nitrophenol per min per μg of purified protein.

B1: E. coli β-glucuronidase (E. coli GUS, GUS^Eco), wild type, SEQ ID NO: 23 (Escherichia coli K-12) (protein)
chain: MLRPVETPTREIKKLDGLWAFSLDRENCGIDQRWWESALQESRAIAVPGSFNDQFADADIRNYAGNVWYQREVFIPKGWAGQRIVLRFDAVTHYGKVWVNNQEVMEHQGGYTPFEADVTPYVIAGKSVRITVCVNNELNWQTIPPGMVITDENGKKKQSYFHDFFNYAGIHRSVMLYTTPNTWVDDITVVTHVAQDCNHASVDWQVVANGDVSVELRDADQQVVATGQGTSGTLQVVNPHLWQPGEGYLYELCVTAKSQTECDIYPLRVGIRSVAVKGEQFLINHKPFYFTGFGRHEDADLRGKGFDNVLMVHDHALMDWIGANSYRTSHYPYAEEMLDWADEHGIVVIDETAAVGFNLSLGIGFEAGNKPKELYSEEAVNGETQQAHLQAIKELIARDKNHPSVVMWSIANEPDTRPQGAREYFAPLAEATRKLDPTRPITCVNVMFCDAHTDTISDLFDVLCLNRYYGWYVQSGDLETAEKVLEKELLAWQEKLHQPIIITEYGVDTLAGLHSMYTDMWSEEYQCAWLDMYHRVFDRVSAVVGEQVWNFADFATSQGILRVGGNKKGIFTRDRKPKSAAFLLQKRWTGMNFGEKPQQGGKQ
notes: pNPG substrate; functional homotetramer
Km: 120 μM pNPG μM
Vmax: 80 nmol/min/µg
